Experiment [1] has as its target T1, human FcγRIIIA (F158) (human, UniProt P08637 17-208).
T1 construct: bought; F158 allele
As to the kind of experiment: SPR, FcγRIIIA captured. Note: test concentration or dose not given here. A general note: SPR reads the build-up and loss of mass on a sensor chip optically.

Experiment [2] deals with T2, Histidine-tagged recombinant human FcγRI (CD64) (human, UniProt P12314 16-288, limits assumed).
T2 construct: bought
Description: SPR, His-FcγRI captured; Expt 1.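 Note: SPR at 25 °C on anti-His antibody chip capturing FcγRI, Fc-variant antibodies injected at 100 µg/mL for 1 min, signal near end of injection minus buffer blank.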
Description: Binding analysis was carried out by surface plasmon resonance at 25° C. using a Biacore® T200 instrument with Biacore® T200 control software. The sample compartment was held at 5° C. The running buffer (HBS-EP+) consisted of 0.01 M HEPES pH 7.4, containing 0.15 M NaCl, 3 mM EDTA, and 0.05% v/v Surfactant P20. Methods were run using the manufacturer's standard method wizards as described in the Biacore® T200 Instrument Handbook.
The cell was activated by treatment with EDC/NHS for 7 min. The antibody was diluted to 10 μg/mL in 10 mM sodium acetate pH 5.0 and injected for 7 min at 5 μL/min. The flow cell was deactivated by injection of 1M ethanolamine for 7 min. This process was repeated in the absence of anti-his antibody on a separate flow cell to generate a reference surface. […] Samples of purified antibodies comprising variant Fc regions (1 mg/mL in PBS) were diluted with running buffer to 100 μg/mL and were injected for 1 min at 30 μL/min and allowed to disassociate for 2 min. Between each cycle, the chip was regenerated by injection of 10 mM glycine pH 3.0 for 0.5 min at a flow rate of 30 μL/min and recharged with a fresh injection of FcγRI. At the beginning of each experiment, three blank cycles were run, with buffer alone being injected instead of test sample. The average SPR signal (relative to the reference cell) was measured in a window approximately 8 to 13 seconds before the injection of test sample (baseline) and approximately 3 to 8 seconds before the end of injection (response). The response of the third of the blank (buffer) samples was subtracted from the response of each test sample in order to allow for any dissociation of the bound FcγRI giving a corrected response for each test sample. The whole experiment was repeated three times with the test samples being analysed in different orders each time.

Experiment [3] has as its target T2, Histidine-tagged recombinant human …. As to the kind of experiment: SPR, His-FcγRI captured; Expt 2.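 Note: biacore T200 SPR at 25 °C, Fc-variant antibodies at 100 µg/mL flowed 1 min over anti-His-captured receptor, signal read near injection end minus third buffer blank; antibody analyte injected at 100 µg/mL for 1 min.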
Experiment [4] has the same target. Description: SPR, His-FcγRI captured; mean.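 Note: biacore T200 SPR at 25 °C, anti-His surface capturing FcγRI, Fc-variant antibodies injected at 100 µg/mL for 1 min, signal near injection end minus third buffer blank, three repeats.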
Experiment [5] shares this target. Description: SPR, His-FcγRI captured; Expt 3.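 Note: biacore T200 SPR at 25 °C, Fc-variant antibodies at 100 µg/mL flowed 1 min over anti-His-captured FcγRI, signal taken just before injection end minus a buffer blank cycle; antibody analyte injected at 100 µg/mL for 1 min.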

This is an account of results in US20230235013A1 (MABSOLVE, published 2023).

T1 sequence (P08637 17-208 limits assumed): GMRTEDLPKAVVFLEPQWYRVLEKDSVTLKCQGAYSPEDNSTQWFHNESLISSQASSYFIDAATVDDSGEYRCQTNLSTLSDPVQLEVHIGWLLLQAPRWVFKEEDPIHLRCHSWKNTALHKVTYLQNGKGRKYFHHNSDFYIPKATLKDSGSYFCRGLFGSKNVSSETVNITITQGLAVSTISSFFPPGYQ

B1: anti-CD20 human IgG1 L234A/L235S/G236R (antibody)
heavy: not shown
light: QIVLSQSPAILSASPGEKVTMTCRASSSVSYIHWFQQKPGSSPKPWIYATSNLASGVPVRFSGSGSGTSYSLTISRVEAEDAATYYCQQWTSNPPTFGGGTKLEIKRTVAAPSVFIFPPSDEQLKSGTASVVCLLNNFYPREAKVQWKVDNALQSGNSQESVTEQDSKDSTYSLSSTLTLSKADYEKHKVYACEVTHQGLSSPVTKSFNRGEC
notes: also called 2-4; 1-14
Consider B1, for which the “Corrected response (RU)” value in experiment [1] was 6 RU; in experiment [2] it was 0 RU; in experiment [3], -1.2 RU; in experiment [5], 2.4 RU. In experiment [4], the “Corrected response (RU), Mean” value came to 0.4 RU.

B2: anti-CD20 human IgG1 L234R/L235R/G236R (antibody)
heavy: QVQLQQPGAELVKPGASVKMSCKASGYTFTSYNMHWVKQTPGRGLEWIGAIYPGNGDTSYNQKFKGKATLTADKSSSTAYMQLSSLTSEDSAVYYCARSTYYGGDWYFNVWGAGTTVTVSSASTKGPSVFPLAPSSKSTSGGTAALGCLVKDYFPEPVTVSWNSGALTSGVHTFPAVLQSSGLYSLSSVVTVPSSSLGTQTYICNVNHKPSNTKVDKKVEPKSCDKTHTCPPCPAPERRRGPSVFLFPPKPKDTLMISRTPEVTCVVVDVSHEDPEVKFNWYVDGVEVHNAKTKPREEQYNSTYRVVSVLTVLHQDWLNGKEYKCKVSNKALPAPIEKTISKAKGQPREPQVYTLPPSRDELTKNQVSLTCLVKGFYPSDIAVEWESNGQPENNYKTTPPVLDSDGSFFLYSKLTVDKSRWQQGNVFSCSVMHEALHNHYTQKSLSLSPGK
light: QIVLSQSPAILSASPGEKVTMTCRASSSVSYIHWFQQKPGSSPKPWIYATSNLASGVPVRFSGSGSGTSYSLTISRVEAEDAATYYCQQWTSNPPTFGGGTKLEIKRTVAAPSVFIFPPSDEQLKSGTASVVCLLNNFYPREAKVQWKVDNALQSGNSQESVTEQDSKDSTYSLSSTLTLSKADYEKHKVYACEVTHQGLSSPVTKSFNRGEC
notes: also called 2-43
For B2, the figures for the “Corrected response (RU)” value in experiment [1], in experiment [2] and in experiment [3] were 10.2 RU, -0.4 RU and 1.8 RU, respectively. Also, in experiment [4], the “Corrected response (RU), Mean” value was found to be 0.7 RU.

B3: anti-CD20 human IgG1 L234K/L235V/G236R (antibody)
heavy: QVQLQQPGAELVKPGASVKMSCKASGYTFTSYNMHWVKQTPGRGLEWIGAIYPGNGDTSYNQKFKGKATLTADKSSSTAYMQLSSLTSEDSAVYYCARSTYYGGDWYFNVWGAGTTVTVSSASTKGPSVFPLAPSSKSTSGGTAALGCLVKDYFPEPVTVSWNSGALTSGVHTFPAVLQSSGLYSLSSVVTVPSSSLGTQTYICNVNHKPSNTKVDKKVEPKSCDKTHTCPPCPAPEKVRGPSVFLFPPKPKDTLMISRTPEVTCVVVDVSHEDPEVKFNWYVDGVEVHNAKTKPREEQYNSTYRVVSVLTVLHQDWLNGKEYKCKVSNKALPAPIEKTISKAKGQPREPQVYTLPPSRDELTKNQVSLTCLVKGFYPSDIAVEWESNGQPENNYKTTPPVLDSDGSFFLYSKLTVDKSRWQQGNVFSCSVMHEALHNHYTQKSLSLSPGK
light: QIVLSQSPAILSASPGEKVTMTCRASSSVSYIHWFQQKPGSSPKPWIYATSNLASGVPVRFSGSGSGTSYSLTISRVEAEDAATYYCQQWTSNPPTFGGGTKLEIKRTVAAPSVFIFPPSDEQLKSGTASVVCLLNNFYPREAKVQWKVDNALQSGNSQESVTEQDSKDSTYSLSSTLTLSKADYEKHKVYACEVTHQGLSSPVTKSFNRGEC
notes: also called 2-26; 1-91
As for B3, the “Corrected response (RU)” value was 5.5 RU in experiment [1], -1.7 RU in experiment [2], 0.4 RU in experiment [3] and 3.1 RU in experiment [5]. Further, in experiment [4], the “Corrected response (RU), Mean” value worked out at 0.6 RU.

B4: anti-CD20 human IgG1 L234R/L235E/G236R (antibody)
heavy: QVQLQQPGAELVKPGASVKMSCKASGYTFTSYNMHWVKQTPGRGLEWIGAIYPGNGDTSYNQKFKGKATLTADKSSSTAYMQLSSLTSEDSAVYYCARSTYYGGDWYFNVWGAGTTVTVSSASTKGPSVFPLAPSSKSTSGGTAALGCLVKDYFPEPVTVSWNSGALTSGVHTFPAVLQSSGLYSLSSVVTVPSSSLGTQTYICNVNHKPSNTKVDKKVEPKSCDKTHTCPPCPAPERERGPSVFLFPPKPKDTLMISRTPEVTCVVVDVSHEDPEVKFNWYVDGVEVHNAKTKPREEQYNSTYRVVSVLTVLHQDWLNGKEYKCKVSNKALPAPIEKTISKAKGQPREPQVYTLPPSRDELTKNQVSLTCLVKGFYPSDIAVEWESNGQPENNYKTTPPVLDSDGSFFLYSKLTVDKSRWQQGNVFSCSVMHEALHNHYTQKSLSLSPGK
light: QIVLSQSPAILSASPGEKVTMTCRASSSVSYIHWFQQKPGSSPKPWIYATSNLASGVPVRFSGSGSGTSYSLTISRVEAEDAATYYCQQWTSNPPTFGGGTKLEIKRTVAAPSVFIFPPSDEQLKSGTASVVCLLNNFYPREAKVQWKVDNALQSGNSQESVTEQDSKDSTYSLSSTLTLSKADYEKHKVYACEVTHQGLSSPVTKSFNRGEC
notes: also called 2-37
For B4, the “Corrected response (RU)” value in experiment [1] came to 4.6 RU; in experiment [2], 0.9 RU; in experiment [3], 1.8 RU; in experiment [5], 4.6 RU. Also, in experiment [4], the “Corrected response (RU), Mean” value turned out to be 2.4 RU.

B5: anti-CD20 human IgG1 L234Q/L235V/G236R (antibody)
heavy: QVQLQQPGAELVKPGASVKMSCKASGYTFTSYNMHWVKQTPGRGLEWIGAIYPGNGDTSYNQKFKGKATLTADKSSSTAYMQLSSLTSEDSAVYYCARSTYYGGDWYFNVWGAGTTVTVSSASTKGPSVFPLAPSSKSTSGGTAALGCLVKDYFPEPVTVSWNSGALTSGVHTFPAVLQSSGLYSLSSVVTVPSSSLGTQTYICNVNHKPSNTKVDKKVEPKSCDKTHTCPPCPAPEQVRGPSVFLFPPKPKDTLMISRTPEVTCVVVDVSHEDPEVKFNWYVDGVEVHNAKTKPREEQYNSTYRVVSVLTVLHQDWLNGKEYKCKVSNKALPAPIEKTISKAKGQPREPQVYTLPPSRDELTKNQVSLTCLVKGFYPSDIAVEWESNGQPENNYKTTPPVLDSDGSFFLYSKLTVDKSRWQQGNVFSCSVMHEALHNHYTQKSLSLSPGK
light: QIVLSQSPAILSASPGEKVTMTCRASSSVSYIHWFQQKPGSSPKPWIYATSNLASGVPVRFSGSGSGTSYSLTISRVEAEDAATYYCQQWTSNPPTFGGGTKLEIKRTVAAPSVFIFPPSDEQLKSGTASVVCLLNNFYPREAKVQWKVDNALQSGNSQESVTEQDSKDSTYSLSSTLTLSKADYEKHKVYACEVTHQGLSSPVTKSFNRGEC
Consider B5, for which the “Corrected response (RU)” value is 4.7 RU in experiment [1], 0.5 RU in experiment [2], 2.5 RU in experiment [3] and 4.5 RU in experiment [5]. Besides, the “Corrected response (RU), Mean” value in experiment [4] was found to be 2.5 RU.

B6: anti-CD20 human IgG1 L234R/L235I/G236R (antibody)
heavy: QVQLQQPGAELVKPGASVKMSCKASGYTFTSYNMHWVKQTPGRGLEWIGAIYPGNGDTSYNQKFKGKATLTADKSSSTAYMQLSSLTSEDSAVYYCARSTYYGGDWYFNVWGAGTTVTVSSASTKGPSVFPLAPSSKSTSGGTAALGCLVKDYFPEPVTVSWNSGALTSGVHTFPAVLQSSGLYSLSSVVTVPSSSLGTQTYICNVNHKPSNTKVDKKVEPKSCDKTHTCPPCPAPERIRGPSVFLFPPKPKDTLMISRTPEVTCVVVDVSHEDPEVKFNWYVDGVEVHNAKTKPREEQYNSTYRVVSVLTVLHQDWLNGKEYKCKVSNKALPAPIEKTISKAKGQPREPQVYTLPPSRDELTKNQVSLTCLVKGFYPSDIAVEWESNGQPENNYKTTPPVLDSDGSFFLYSKLTVDKSRWQQGNVFSCSVMHEALHNHYTQKSLSLSPGK
light: QIVLSQSPAILSASPGEKVTMTCRASSSVSYIHWFQQKPGSSPKPWIYATSNLASGVPVRFSGSGSGTSYSLTISRVEAEDAATYYCQQWTSNPPTFGGGTKLEIKRTVAAPSVFIFPPSDEQLKSGTASVVCLLNNFYPREAKVQWKVDNALQSGNSQESVTEQDSKDSTYSLSSTLTLSKADYEKHKVYACEVTHQGLSSPVTKSFNRGEC
notes: also called 2-39
Consider B6, for which the “Corrected response (RU)” value was 2.7 RU in experiment [1], -0.8 RU in experiment [2] and -0.2 RU in experiment [3]. The “Corrected response (RU), Mean” value in experiment [4] was 0.1 RU.

B7: anti-CD20 human IgG1 L234D/L235K/G236R (antibody)
heavy: QVQLQQPGAELVKPGASVKMSCKASGYTFTSYNMHWVKQTPGRGLEWIGAIYPGNGDTSYNQKFKGKATLTADKSSSTAYMQLSSLTSEDSAVYYCARSTYYGGDWYFNVWGAGTTVTVSSASTKGPSVFPLAPSSKSTSGGTAALGCLVKDYFPEPVTVSWNSGALTSGVHTFPAVLQSSGLYSLSSVVTVPSSSLGTQTYICNVNHKPSNTKVDKKVEPKSCDKTHTCPPCPAPEDKRGPSVFLFPPKPKDTLMISRTPEVTCVVVDVSHEDPEVKFNWYVDGVEVHNAKTKPREEQYNSTYRVVSVLTVLHQDWLNGKEYKCKVSNKALPAPIEKTISKAKGQPREPQVYTLPPSRDELTKNQVSLTCLVKGFYPSDIAVEWESNGQPENNYKTTPPVLDSDGSFFLYSKLTVDKSRWQQGNVFSCSVMHEALHNHYTQKSLSLSPGK
light: QIVLSQSPAILSASPGEKVTMTCRASSSVSYIHWFQQKPGSSPKPWIYATSNLASGVPVRFSGSGSGTSYSLTISRVEAEDAATYYCQQWTSNPPTFGGGTKLEIKRTVAAPSVFIFPPSDEQLKSGTASVVCLLNNFYPREAKVQWKVDNALQSGNSQESVTEQDSKDSTYSLSSTLTLSKADYEKHKVYACEVTHQGLSSPVTKSFNRGEC
notes: also called 2-7; 1-23
On to B7, for which the “Corrected response (RU)” value in experiment [1] was 3.7 RU; in experiment [2], -1.4 RU; in experiment [3], 0.1 RU; in experiment [5], 1.8 RU. For the same molecule, the “Corrected response (RU), Mean” value in experiment [4] was determined as 0.2 RU.
